Source: patent US20220064331A1 (Genentech, published 2022)

B1: 5F8 (antibody, V domains shown)
VH: EVQLQQSGTELVRPGASVKLSCTSSDFNIKDTYIHWVKQRPEQGLDWLGRIDPANGNTKYDPKFQGKAAMTSDTSSNTAYLRLSSLTSEDTAVYYCASSGNYGAMDYWGQGTSVTVSS
VL: ESVLTQSPALMSASLGEKVTMTCRASSSVNHMYWYQQKSDASPKLWIYYTSTLAPGVPARFSGSGSGNSYSLTISSMEGEDAATYYCQQFTISPSMYTFGGGTKLEIK
notes: murine hybridoma-derived anti-KLB antibody
B2: 8H7 (antibody, V domains shown)
VH: QVQLQQPGAEIVKPGASVRLSCKASGYSFTSYWIHWVKQRPGQGLEWIGEIDPSVSNSNYNQKFKGKATLTADKSSSTAYMQLSGLTSEDSAVYFCVRLGVMVYGSSPFWFAYWGQGTLVTVSA
VL: DIVMTQSQKFMSTSVGDRVSITCKASQFVSDAVAWYQQKPGQSPKLLICSASYRYTGVPDRFTGSGSGTDFTFTISSVRTEDLAVYYCQQHYIVPYTFGGGTTLEIE
notes: as for B1
B3: 24A1 (antibody, V domains shown)
VH: QVQLKQSGAELVRPGTSVTLSCKASGYTFTDYEMHWMKQTPVYGLEWIGAIWPENADSVYNQKFKGKVTLTADKSSSTAYMDLRSLTSEDSAVYYCTREGGNYWGQGTTLTVSS
VL: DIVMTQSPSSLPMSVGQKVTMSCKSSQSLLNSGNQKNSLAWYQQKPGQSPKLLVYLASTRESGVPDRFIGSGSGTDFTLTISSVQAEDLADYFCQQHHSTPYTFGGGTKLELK
notes: as for B1
B4: 14C6 (antibody, V domains shown)
VH: QIQLQQSGAELMKPGASVRMSCKASGYTFSSYWIEWVKQRSGHGLEWIGEIFPGGGSTIYNENFRDKATFTADTSSNTAYMQLSSLTSEDSAVYFCARRGYYDAAWFDYWGQGTLVTVSA
VL: QIVLTQSPAIMSASPGERVTLTCSASSSLSSSYLYWYQQKPGSSPKLWIYGASNLASGVPGRFSGSGSGTSYSLTISSMEAEDAASYFCHQWSSYPLTFGSGTKLELK
notes: as for B1
B5: 12B8 (antibody, V domains shown)
VH: QIQLVQSGPELKKPGETAKISCKASGYAFSNYGMNWVKQAPGKDLKWMGWIDTDTGEATYTDDFKGRFVFSLETSASTAYLQINNLKNEDMATYFCAREEYGLFGFPYWGHGTLVTVSA
VL: DIQMTQSSSSFSVSLGDRVTITCKASEDIYNRLAWYQQKPGSAPRLLISAATSLETGVPSRFSGSGSGKDYTLSITSLQTEDVATYYCQQYWSNPLTFGAGTKLEIK
notes: as for B1
B6: 8E1 (antibody, V domains shown)
VH: EVQLQQSGAELVKPGASVKLSCTAADFNIKDTYMHWVKQRPEQGLEWIGRIDPSNGNAKYDPKFQGKASITADSSSNTAYLHLSSLTSEDTAVYYCASRALGNGYALGYWGQGTSVTVSS
VL: DIQMTQSSSYLSVSLGGSVTITCKASDHINNWLAWYQQKPGNAPRLLIYGTTNLETGVPSRFSGSGSGRDYILSITSLQSEDVASYYCQQYWNTPFTFGSGTKLEIK
notes: as for B1
B7: 25F7 (antibody, V domains shown)
VH: EVQLQQSGAELLKPGASVRLSCTASGFNIQDTFTHWVRQRPEQGLEWIGRIDPSNGNTKYDPKFQGKAKILADTSSNTAYLQLIGLTSEDTAVYYCASRALGNGYAMDYWGQGTSVTVSS
VL: DIQMTQSSSYLSVSLGGRVTITCKASDHINNWLAWYQQKPGNAPRLLISGASNLETGIPSRFSGSGSGKDYTLTITSLQTEDVATYYCQQYWNTPFTFGSGTKLEIK
notes: as for B1
B8: 8C5 (antibody, V domains shown)
VH: QVQLKQSGPGLVQPSQSLSVACTVSDFSLTTYGVHWVRQSPGKGLEWLGVIWSGGSTDYNAAFISRLTISKDNSKSQVFFKMNSLQTTDTAIYYCARDYGSTYVDAIDYWGQGTSVTVSS
VL: DIVLTQSPTSLAVSLGQRATISCRASESVESYGNRYMTWYQQKPGQPPKLLIYRAANLQSGIPARFSGSGSRTDFTLTIDPVEADDVATYYCQQSNEDPWTFGGGTKVEIK
notes: murine hybridoma-derived anti-KLB antibody; also called KLBmAb1
B9: 12A11 (antibody, V domains shown)
VH: EVKFLESGGGLVQPGGSLRLSCAVSGIDFSRYWMSWVRQAPGKGLEWIGEISPDSSTINYTPSLKDKFVISRDNAKNTLYLQMSKVRSADTALYYCARPSPALDYWGQGTLVTVSA
VL: DIVMTQSPATLSVTPGDRVSLSCRASQSISDYVYWYQQKSHESPRLLIIYASQSISGIPSRFSGSGSGSDFTLSINSVEPEDVGVYYCQNGHNFPYTFGGGTKLEIK
notes: murine hybridoma-derived anti-KLB antibody; also called KLBmAb2
B10: 14E6 (antibody, V domains shown)
VH: EVPLQQSGPELVKPGATVKISCKPSGDTFTEYTMNWVRQSHGKSLEWIGGINPNNGETSYNQKFKGKATLTVDKSSSTAFMDLRILTSEDSAVYFCARKTTNYWGQGTTLIVSS
VL: DIQMTQSPSSLSASLGERVSLTCRASQEISGYLSWLQQKPDGTIKRLIYAASTLDSGVPRRFSGSRSGSDYSLTISSLESEDFADYYCLQYGSYPWTFGGGTKLELK
notes: as for B1
B11: 11F1 (antibody, V domains shown)
VH: EVQLVESGGGLVKPGGSLKLSCAPSGFTFSSYGISWVRQTPEKRLEWVATVSSGGRYTYYPDSVKGRFTISRDNAENTLYLQMSSLRSEDTAMYYCTRGGDGYALDYWGQGTSVTVSS
VL: DIQMTQTTSSLSASLGDRVTIICSASQVISNYLNWYQQKPDGTVKLLIYFTSSLRSGVPSRFSGSGSGTDYSLTISNLEPEDVATYFCQQYSKLPWTFGGGTKLELK
notes: as for B1
B12: 46C3 (antibody, V domains shown)
VH: EVQLQQSGAELVKPGASVKLSCTASDFNIIDTYIHWVKQRPEQGLEWIGRIDPANGNTKYDPKFQDKAALTSDTDSNTAYLLFNSLTSEDTAVYYCARGTSYSWFAYWGQGTLVSVSA
VL: AVLMTQTPLSLPVSLGDQASISCRSSQNIVHSDGNTYLEWYLQKPGQSPKLLIYKVSNRFSGVPDRFSGSGSGRDFTLKISRVEAGDLGVYYCFQGSHVLTFGAGTRLELK
notes: as for B1
B13: 21H3 (antibody, V domains shown)
VH: QVQLQQPGAEIVKPGASVRLSCKASGYSFTSYWIHWVKQRPGQGLEWIGEIDPSVSNSNYNQKFKGKATLTADKSSSTAYMQLSGLTSEDSAVYFCVRLGVMVYGSSPFWFAYWGQGTLVTVSA
VL: DIVMTQSQKFMSTSVGDRVSITCKASQFVSDAVAWYQQKPGQSPKLLICSASYRYTGVPDRFTGSGSGTDFTFTISSVRTEDLAVYYCQQHYIVPYTFGGGTTLEIE
notes: as for B1

Assays:
[1] = molecular target: T1, rat KLB (+N-ter FLAG) (rat, UniProt Q99N32 53-989 (mouse entry)); assay: FACS on transfected HEK293T cells
T1 construct: expressed from KLB cDNA on HEK293T cells and read by FACS
T1 chain: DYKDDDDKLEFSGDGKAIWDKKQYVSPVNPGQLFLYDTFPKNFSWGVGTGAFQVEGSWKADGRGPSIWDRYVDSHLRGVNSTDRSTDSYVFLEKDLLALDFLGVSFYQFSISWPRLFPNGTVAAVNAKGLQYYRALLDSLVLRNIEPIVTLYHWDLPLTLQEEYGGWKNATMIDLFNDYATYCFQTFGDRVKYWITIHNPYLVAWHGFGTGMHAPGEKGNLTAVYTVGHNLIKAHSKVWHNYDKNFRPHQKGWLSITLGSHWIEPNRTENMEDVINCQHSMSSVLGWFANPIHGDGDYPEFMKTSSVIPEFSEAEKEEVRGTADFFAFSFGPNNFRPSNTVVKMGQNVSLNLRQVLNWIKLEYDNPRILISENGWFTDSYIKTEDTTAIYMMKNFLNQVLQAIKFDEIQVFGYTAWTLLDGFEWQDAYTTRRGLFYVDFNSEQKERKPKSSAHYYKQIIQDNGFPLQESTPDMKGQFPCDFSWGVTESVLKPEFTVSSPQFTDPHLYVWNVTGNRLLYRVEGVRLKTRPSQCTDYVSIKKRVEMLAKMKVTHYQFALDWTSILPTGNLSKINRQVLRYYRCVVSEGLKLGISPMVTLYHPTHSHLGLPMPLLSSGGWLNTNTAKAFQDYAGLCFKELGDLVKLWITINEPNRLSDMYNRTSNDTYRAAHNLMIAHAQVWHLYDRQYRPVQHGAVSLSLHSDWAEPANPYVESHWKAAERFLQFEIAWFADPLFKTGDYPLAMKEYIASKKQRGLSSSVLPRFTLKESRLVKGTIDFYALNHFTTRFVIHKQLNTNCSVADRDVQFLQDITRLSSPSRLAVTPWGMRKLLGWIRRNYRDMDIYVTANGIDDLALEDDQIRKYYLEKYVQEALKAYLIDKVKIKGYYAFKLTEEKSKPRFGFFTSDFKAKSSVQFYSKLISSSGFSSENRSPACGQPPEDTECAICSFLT
Method: (§1) Species cross reactivity of the disclosed anti-KLB antibodies were analyzed by FACS analysis using KLB cDNA from mouse, rat, rabbit, cynomolgus monkey and rhesus monkey cloned into pRK mammalian expression vectors transiently transfected into HEK293T cells. The KLB extracellular domain polypeptide sequences that were expressed are as follows: […]

[2] = molecular target: T2, rhesus monkey KLB (+N-ter FLAG) (rhesus monkey, UniProt Q86Z14 53-992 (human entry)); assay: FACS on transfected HEK293T cells
T2 construct: expressed from KLB cDNA on HEK293T cells and read by FACS
T2 chain: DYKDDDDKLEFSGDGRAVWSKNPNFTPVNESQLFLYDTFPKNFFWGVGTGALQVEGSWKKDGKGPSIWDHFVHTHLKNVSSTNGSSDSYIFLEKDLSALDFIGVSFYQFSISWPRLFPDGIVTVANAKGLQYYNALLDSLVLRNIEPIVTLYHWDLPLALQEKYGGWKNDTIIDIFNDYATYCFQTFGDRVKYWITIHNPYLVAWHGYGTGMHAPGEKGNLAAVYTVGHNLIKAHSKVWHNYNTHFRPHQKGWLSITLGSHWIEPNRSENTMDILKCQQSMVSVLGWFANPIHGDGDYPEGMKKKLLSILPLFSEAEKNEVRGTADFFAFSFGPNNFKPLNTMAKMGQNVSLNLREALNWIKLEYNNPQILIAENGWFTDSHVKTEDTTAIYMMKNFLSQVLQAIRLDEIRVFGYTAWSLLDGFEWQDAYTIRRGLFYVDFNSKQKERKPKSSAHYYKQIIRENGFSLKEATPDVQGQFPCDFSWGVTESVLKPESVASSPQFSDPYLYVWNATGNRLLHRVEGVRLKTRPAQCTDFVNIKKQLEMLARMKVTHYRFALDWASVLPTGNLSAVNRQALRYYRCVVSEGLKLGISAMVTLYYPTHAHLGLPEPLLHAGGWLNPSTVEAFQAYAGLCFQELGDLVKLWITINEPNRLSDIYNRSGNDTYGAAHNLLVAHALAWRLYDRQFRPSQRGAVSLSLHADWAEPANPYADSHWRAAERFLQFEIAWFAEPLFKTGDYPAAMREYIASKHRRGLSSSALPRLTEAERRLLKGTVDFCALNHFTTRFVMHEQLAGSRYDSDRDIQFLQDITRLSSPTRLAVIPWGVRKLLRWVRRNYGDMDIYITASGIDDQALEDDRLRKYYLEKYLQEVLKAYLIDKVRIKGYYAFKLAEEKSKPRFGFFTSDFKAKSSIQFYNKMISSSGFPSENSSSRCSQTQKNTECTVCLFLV
Method: as §1

[3] = molecular target: T3, human KLB expressed on cells (human, UniProt Q86Z14 53-1044); assay: FACS on 293 cells expressing hKLB, antibody at 0.8 µg/ml, median shift
T3 construct: on transfected 293 / HEK293 cells; also called hKLB; beta-Klotho

binding result [1] | binding result [2] | binding result [3] | Binder
no binding | binds | binds | B1
no binding | binds | binds | B2
binds | binds | binds | B3
binds | binds | binds | B4
no binding | binds | binds | B5
no binding | binds | binds | B6
no binding | binds | binds | B7
binds | binds | binds | B8
no binding | binds | binds | B9
binds | binds | – | B10
no binding | binds | – | B11
no binding | no binding | – | B12
no binding | binds | – | B13
